ChEMBL document CHEMBL1148676, “Fluorogenic ester substrates to assess proteolytic activity” (Bioorg Med Chem Lett, 2006)
Each block holds one molecule with its values, some of them ahead of it. Active and inactive are the calls of the source. No cut-off for these calls is given here.

Assays:
[1] = biological target: Cathepsin B (Homo sapiens) (UniProt P07858); test: (§1) Affinity to cathepsin B
[2] = tested on: CC[C@H](NC(=O)OC(C)(C)C)C(=O)Oc1ccc2c(c1)Oc1cc(OC)ccc1C21OC(=O)c2ccccc21; test: as §1; conditions: Homo sapiens
[3] = tested on: CC[C@H](NC(=O)OCC1c2ccccc2-c2ccccc21)C(=O)Oc1ccc2c(c1)Oc1cc(OC)ccc1C21OC(=O)c2ccccc21; test: as §1; conditions: Homo sapiens
[4] = tested on: COc1ccc2c(c1)Oc1cc(OC(=O)CNC(=O)OCC3c4ccccc4-c4ccccc43)ccc1C21OC(=O)c2ccccc21; test: as §1; conditions: Homo sapiens
[5] = tested on: COc1ccc2c(c1)Oc1cc(OC(=O)[C@H](C)NC(=O)OC(C)(C)C)ccc1C21OC(=O)c2ccccc21; test: as §1; conditions: Homo sapiens
[6] = tested on: COc1ccc2c(c1)Oc1cc(OC(=O)[C@H](C)NC(=O)OCC3c4ccccc4-c4ccccc43)ccc1C21OC(=O)c2ccccc21; test: as §1; conditions: Homo sapiens
[7] = tested on: COc1ccc2c(c1)Oc1cc(OC(=O)[C@H](CC(C)C)NC(=O)OC(C)(C)C)ccc1C21OC(=O)c2ccccc21; test: as §1; conditions: Homo sapiens

Activity [1]: inactive
Molecule: COc1ccc2c(c1)Oc1cc(OC(C)=O)ccc1C21OC(=O)c2ccccc21 (centres undefined)

Activity [1]: inactive
Molecule: COc1ccc2c(c1)Oc1cc(OS(=O)(=O)c3ccc(C)cc3)ccc1C21OC(=O)c2ccccc21 (centres undefined)

Activity [1]: inactive
Molecule: COc1ccc2c(c1)Oc1cc(OS(=O)(=O)c3ccc([N+](=O)[O-])cc3)ccc1C21OC(=O)c2ccccc21 (centres undefined)

Molecule: Cathepsin B (Homo sapiens) (from UniProt P07858)
Km [2]: 2.2 µM
Km [3]: 7.2 µM
Km [4]: 7.9 µM
Km [5]: 4.5 µM
Km [6]: 7.6 µM
Km [7]: 2.7 µM
